For the experiment, the target named is His-GD1 (N-terminally His-tagged GD1 domain of EngA) (Synechococcus elongatus PCC7942). The experiment can be described thus: pull-down; His-EngA or His-GD1 (6 μg) bound to DynaBeads-Histag, 6 μg PipX–ST added; 50 mM Tris-HCl pH 7, 0.1 M KCl, 10% glycerol, 10 mM MgCl2, 20 mM imidazole, 0.1% Triton-X100, with or without 1 mM GDP, room temperature; elution with 500 mM imidazole; Western blot with antisera against PipX and EngA. For orientation: A western blot detects proteins with antibodies after separation by electrophoresis.
Sequence of His-GD1 (N-terminally His-tagged GD1 domain of EngA) (Synechococcus elongatus PCC7942) (Q31KP9 1-169): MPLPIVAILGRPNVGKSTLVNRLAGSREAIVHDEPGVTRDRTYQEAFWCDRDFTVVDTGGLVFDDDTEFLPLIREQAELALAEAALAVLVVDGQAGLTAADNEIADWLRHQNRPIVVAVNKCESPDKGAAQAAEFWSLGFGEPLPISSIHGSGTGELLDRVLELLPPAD

B1: PipX–ST (C-terminally Strep-tagged PipX) (natural protein)
chain: MASENYLNHPTFGLLYQICSFGDSKELFATLYAQRLFFLVAFDARGTRFEPIGRNEARMLVDNRLRQLRRDASLQEYNQLQQVFKQTFL
With B1, the retention of PipX (PipX/GD1 band intensity ratio) relative to the PipX/EngA ratio with His-EngA stood at 10 fold.

For the origin of these results see publication PMC8696166.
